Legend:
[1] = molecular target: T1, His6-BfmR (Pseudomonas aeruginosa MPAO1) (UniProt Q9HWS7); test: EMSA; details: 10 mM Tris-Cl pH 8.0, 1 mM DTT, 10% glycerol, 5 mM MgCl2, 10 mM KCl, 50 mM acetyl phosphate; EMSA 30 min at 37 C; footprinting 30 min at room temperature
T1 sequence: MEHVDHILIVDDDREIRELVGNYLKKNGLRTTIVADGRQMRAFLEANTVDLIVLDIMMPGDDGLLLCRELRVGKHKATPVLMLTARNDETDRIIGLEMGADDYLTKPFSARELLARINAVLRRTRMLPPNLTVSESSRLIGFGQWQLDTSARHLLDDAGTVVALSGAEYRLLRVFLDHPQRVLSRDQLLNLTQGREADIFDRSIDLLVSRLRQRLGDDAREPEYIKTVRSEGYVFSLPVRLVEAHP

[2] = molecular target: T1, His6-BfmR (Pseudomonas aeruginosa MPAO1); test: DNase I footprinting; details: 10 mM Tris-Cl pH 8.0, 1 mM DTT, 10% glycerol, 5 mM MgCl2, 10 mM KCl, 50 mM acetyl phosphate; EMSA 30 min at 37 C; footprinting 30 min at room temperature

Sequence: GAATATCCGAAAGCCAGACGGTTATCGGCAGAAACTCTTGGTTTTCATTGCAGTCATGCAATCTTCGCAAGGTTGCCGCAATATATGAAACAAACTGTTACATCTGTCGCCCGGACCTGATGCCTCTAGGCCTGCGCCCTTATCCGACGGCCTCATCCAGGCGCTATCCGGCTGCCTGTCACAAAAGCTTTCGCGCTTTGCAGTCTCGCTGTCACAACCCATCCAGATGATCCCCCTCCAGCAGCGCCGGCCGGCGACAGAACCGGCCGTTTCCGCGCTGCTCAAGA (double strand) [oprP promoter]
- binding [1]: binds
- binding [2]: binds

From paper PMC8025907
